This assay has as its target cellobiose dehydrogenase IIA from N. crassa (N. crassa).

B1: PMO-02916 (enzyme)
chain: HTIFQKVSVNGADQGQLKGIRAPANNNPVTDVMSSDIICNAVTMKDSNVLTVPAGAKVGHFWGHEIGGAAGPNDADNPIAASHKGPIMVYLAKVDNAATTGTSGLKWFKVAEAGLSNGKWAVDDLIANNGWSYFDMPTCIAPGQYLMRAELIALHNAGSQAGAQFYIGCAQINVTGGGSASPSNTVSFPGAYSASDPGILINIYGGSGKTDNGGKPYQIPGPALFTCPAGGSGGSSPAPATTASTPKPTSASAPKPVSTTASTPKPTNGSGSGTGAAHSTKCGGSKPAATTKASNPQPTNGGNSAVRAAALYGQCGGKGWTGPTSCASGTCKFSNDWYSQCLP
B1 had a Specific activity of H2O2 production (Amplex Red/horseradish peroxidase assay) with CDH IIA (0.3 uM, 500 uM cellobiose) as reductant of 1.82 U g^-1.

B2: PMO-08760 (enzyme)
chain: HATFQALWVDGADYGSQCARVPPSNSPVTDVTSNAMRCNTGTSPVAKKCPVKAGSTVTVEMHQQANDRSCSSEAIGGAHYGPVLVYMSKVSDAASADGSSGWFKIFEDTWAKKPSSSSGDDDFWGVKDLNSCCGKMQVKIPSDIPAGDYLLRAEVIALHTAASAGGAQLYMTCYQISVTGGGSATPATVSFPGAYKSSDPGILVDIHSAMSTYVAPGPAVYSGGSSKKAGSGCVGCESTCKVGSGPTGTASAVPVASTSAAAGGGGGGGSGGCSVAKYQQCGGTGYTGCTSCASGSTCSAVSPPYYSQCV
For B2, the Specific activity of H2O2 production (Amplex Red/horseradish peroxidase assay) with CDH IIA (0.3 uM, 500 uM cellobiose) as reductant was 1.53 U g^-1.

B3: PMO-03328 (enzyme)
chain: HYTFPKVWANSGTTADWQYVRRADNWQNNGFVDNVNSQQIRCFQSTHSPAQSTLSVAAGTTITYGAAPSVYHPGPMQFYLARVPDGQDINSWTGEGAVWFKIYHEQPTFGSQLTWSSNGKSSFPVKIPSCIKSGSYLLRAEHIGLHVAQSSGAAQFYISCAQLSITGGGSTEPGANYKVSFPGAYKASDPGILININYPVPTSYKNPGPSVFTC
In the case of B3, the Specific activity of H2O2 production (Amplex Red/horseradish peroxidase assay) with CDH IIA (0.3 uM, 500 uM cellobiose) as reductant stood at 15.5 U g^-1.

B4: PMO-01867 (enzyme)
chain: HAIFQQLWVDGVDYGSTCNRLPTSNSPVTNVGSRDVVCNAGTRGVSGKCPVKAGGTVTVEMHQQPGDRSCKSEAIGGAHWGPVQIYLSKVSDASTADGSSGGWFKIFSDAWSKKSGGRVGDDDNWGTRDLNACCGRMDVLIPKDLPSGDYLLRAEALALHTAGQSGGAQFYISCYQITVSGGGSANYATVKFPGAYRASDPGIQINIHAVVSNYVAPGPAVVAGGVTKQAGSGCIGCESTCKVGSSPSAVAPGGKPASGGSDGNAPEVAEPSGGEGSPSAPGACEVAAYGQCGGDQYSGCTQCASGYTCKAVSPPYYSQCAPTS
For B4, the Specific activity of H2O2 production (Amplex Red/horseradish peroxidase assay) with CDH IIA (0.3 uM, 500 uM cellobiose) as reductant was 1.07 U g^-1.

The values above are taken from paper PMC3500269.
